B1: 214-E8 15GS 213-H7 (VHH)
chain: EVQLVESGGGSVQAGGSLRLSCAASGGTFNPYVMAWFRQAPGNEREFVARIRWSGGDAYYDDSVKGRFAITRDAAKNTVHLQMNSLKPEDTAVYYCAAATYGYGSYTYGGSYDLWGQGTQVTVSSGGGGSGGGGSGGGGSEVQLVESGGGLVQAGGSLRLSCAASGRTLSSYRMGWFRQAPGKEREFISTISWNGRSTYYADSVKGRFIFSEDNAKNTVYLQMNSLKPEDTAVYYCAAALIGGYYSDVDAWSYWGPGTQVTVSS
B2: 213-E6 25GS 214-E8 (VHH)
chain: EVQLVESGGGLVQAGASLRLSCAASGSTLSRYGVGWFRQAPGKERELVASVDWSGSRTYYADSVKGRFTISRDNAKNTGYLQMNSLKPDDTAVYYCAADSSVVPGIEKYDDWGLGTQVTVSSGGGGSGGGGSGGGGSGGGGSGGGGSEVQLVESGGGSVQAGGSLRLSCAASGGTFNPYVMAWFRQAPGNEREFVARIRWSGGDAYYDDSVKGRFAITRDAAKNTVHLQMNSLKPEDTAVYYCAAATYGYGSYTYGGSYDLWGQGTQVTVSS
B3: 214-E8 25GS 212-C12 (VHH)
chain: EVQLVESGGGSVQAGGSLRLSCAASGGTFNPYVMAWFRQAPGNEREFVARIRWSGGDAYYDDSVKGRFAITRDAAKNTVHLQMNSLKPEDTAVYYCAAATYGYGSYTYGGSYDLWGQGTQVTVSSGGGGSGGGGSGGGGSGGGGSGGGGSEVQLVESGGGLVQPGGSLRLSCAASGFTFGSSDMSWVRQAPGKGPEWVSGINSGGGRTLYADSVKGRFTISRDNAKNTLYLQMNSLKSEDTAVYYCATDLYGSSWYTDYWSQGTQVTVSS
B4: 213-H7 15GS 213-H7 (VHH)
chain: EVQLVESGGGLVQAGGSLRLSCAASGRTLSSYRMGWFRQAPGKEREFISTISWNGRSTYYADSVKGRFIFSEDNAKNTVYLQMNSLKPEDTAVYYCAAALIGGYYSDVDAWSYWGPGTQVTVSSGGGGSGGGGSGGGGSEVQLVESGGGLVQAGGSLRLSCAASGRTLSSYRMGWFRQAPGKEREFISTISWNGRSTYYADSVKGRFIFSEDNAKNTVYLQMNSLKPEDTAVYYCAAALIGGYYSDVDAWSYWGPGTQVTVSS
B5: 212-C12 15GS 212-C12 (VHH)
chain: EVQLVESGGGLVQPGGSLRLSCAASGFTFGSSDMSWVRQAPGKGPEWVSGINSGGGRTLYADSVKGRFTISRDNAKNTLYLQMNSLKSEDTAVYYCATDLYGSSWYTDYWSQGTQVTVSSGGGGSGGGGSGGGGSEVQLVESGGGLVQPGGSLRLSCAASGFTFGSSDMSWVRQAPGKGPEWVSGINSGGGRTLYADSVKGRFTISRDNAKNTLYLQMNSLKSEDTAVYYCATDLYGSSWYTDYWSQGTQVTVSS
B6: 214-E8 15GS 212-C12 (VHH)
chain: EVQLVESGGGSVQAGGSLRLSCAASGGTFNPYVMAWFRQAPGNEREFVARIRWSGGDAYYDDSVKGRFAITRDAAKNTVHLQMNSLKPEDTAVYYCAAATYGYGSYTYGGSYDLWGQGTQVTVSSGGGGSGGGGSGGGGSEVQLVESGGGLVQPGGSLRLSCAASGFTFGSSDMSWVRQAPGKGPEWVSGINSGGGRTLYADSVKGRFTISRDNAKNTLYLQMNSLKSEDTAVYYCATDLYGSSWYTDYWSQGTQVTVSS
B7: 214-E8 15GS 214-E8 (VHH)
chain: EVQLVESGGGSVQAGGSLRLSCAASGGTFNPYVMAWFRQAPGNEREFVARIRWSGGDAYYDDSVKGRFAITRDAAKNTVHLQMNSLKPEDTAVYYCAAATYGYGSYTYGGSYDLWGQGTQVTVSSGGGGSGGGGSGGGGSEVQLVESGGGSVQAGGSLRLSCAASGGTFNPYVMAWFRQAPGNEREFVARIRWSGGDAYYDDSVKGRFAITRDAAKNTVHLQMNSLKPEDTAVYYCAAATYGYGSYTYGGSYDLWGQGTQVTVSS
B8: 213-E6 15GS 213-H7 (VHH)
chain: EVQLVESGGGLVQAGASLRLSCAASGSTLSRYGVGWFRQAPGKERELVASVDWSGSRTYYADSVKGRFTISRDNAKNTGYLQMNSLKPDDTAVYYCAADSSVVPGIEKYDDWGLGTQVTVSSGGGGSGGGGSGGGGSEVQLVESGGGLVQAGGSLRLSCAASGRTLSSYRMGWFRQAPGKEREFISTISWNGRSTYYADSVKGRFIFSEDNAKNTVYLQMNSLKPEDTAVYYCAAALIGGYYSDVDAWSYWGPGTQVTVSS
B9: NB6-18GS-NB6 (VHH)
chain: EVQLVESGGGLVQAGGSLRLSCAASGPTFSADTMGWFRQAPGKEREFVATIPWSGGIAYYSDSVKGRFTMSRDNAKNTVDLQMNSLKPEDTALYYCAGSSRIYIYSDSLSERSYDYWGQGTQVTVSSGGGGSGGGGSGGGGGGGSEVQLVESGGGLVQAGGSLRLSCAASGPTFSADTMGWFRQAPGKEREFVATIPWSGGIAYYSDSVKGRFTMSRDNAKNTVDLQMNSLKPEDTALYYCAGSSRIYIYSDSLSERSYDYWGQGTQVTVSSAAAEQKLISEEDLNGAAHHHHHH
B10: 214-E8 5GS 212-C12 (VHH)
chain: EVQLVESGGGSVQAGGSLRLSCAASGGTFNPYVMAWFRQAPGNEREFVARIRWSGGDAYYDDSVKGRFAITRDAAKNTVHLQMNSLKPEDTAVYYCAAATYGYGSYTYGGSYDLWGQGTQVTVSSGGGGSEVQLVESGGGLVQPGGSLRLSCAASGFTFGSSDMSWVRQAPGKGPEWVSGINSGGGRTLYADSVKGRFTISRDNAKNTLYLQMNSLKSEDTAVYYCATDLYGSSWYTDYWSQGTQVTVSS

Biological target: Rabies virus glycoprotein G, strain CVS-11 (Challenge Virus Standard-11, ATCC VR 959) (Rabies virus, strain CVS-11)
Assay: cell-based or functional assay

| Binder | CVS neutralizing antibody titre (RFFIT): IU/mg [IU/mg] | CVS neutralizing antibody titre (RFFIT): IU/ml [IU/ml] | CVS neutralizing antibody titre (RFFIT): IU/nM [IU/nM] | CVS neutralizing antibody titre (RFFIT): nM IC50 [nM] | Potency (IU/nM) increase versus monovalent [fold] |
| --- | --- | --- | --- | --- | --- |
| B1 | 8220 | 1890 | 230 | 0.14 | 605 |
| B2 | 657 | 46 | 1.84 | 1.68 | 2.3 |
| B3 | 573 | 70.5 | 1.6 | 1.94 | 1.5 |
| B4 | 549 | 412 | 15.4 | 2.09 | 34.2 |
| B5 | 330 | 330 | 8.57 | 3.74 | 4.6 |
| B6 | 322 | 998 | 8.7 | 3.69 | 8 |
| B7 | 349 | 454 | 9.78 | 3.28 | 31.5 |
| B8 | 4250 | 3760 | 93.7 | 0.26 | 107 |
| B9 | < 2.38 | < 0.5 | < 0.07 | > 725 |  |
| B10 | 214 | 171 | 5.68 | 5.65 | 5.2 |
